Publication PMC9830397 (European Journal of Translational Myology, 2022)

Target: FITC-labelled human holo-transferrin (human, UniProt P02787 20-698, FITC label (position not given); holo form)
Test: solid-phase fluorescence binding assay

Sequence of FITC-labelled human holo-transferrin (P02787 20-698): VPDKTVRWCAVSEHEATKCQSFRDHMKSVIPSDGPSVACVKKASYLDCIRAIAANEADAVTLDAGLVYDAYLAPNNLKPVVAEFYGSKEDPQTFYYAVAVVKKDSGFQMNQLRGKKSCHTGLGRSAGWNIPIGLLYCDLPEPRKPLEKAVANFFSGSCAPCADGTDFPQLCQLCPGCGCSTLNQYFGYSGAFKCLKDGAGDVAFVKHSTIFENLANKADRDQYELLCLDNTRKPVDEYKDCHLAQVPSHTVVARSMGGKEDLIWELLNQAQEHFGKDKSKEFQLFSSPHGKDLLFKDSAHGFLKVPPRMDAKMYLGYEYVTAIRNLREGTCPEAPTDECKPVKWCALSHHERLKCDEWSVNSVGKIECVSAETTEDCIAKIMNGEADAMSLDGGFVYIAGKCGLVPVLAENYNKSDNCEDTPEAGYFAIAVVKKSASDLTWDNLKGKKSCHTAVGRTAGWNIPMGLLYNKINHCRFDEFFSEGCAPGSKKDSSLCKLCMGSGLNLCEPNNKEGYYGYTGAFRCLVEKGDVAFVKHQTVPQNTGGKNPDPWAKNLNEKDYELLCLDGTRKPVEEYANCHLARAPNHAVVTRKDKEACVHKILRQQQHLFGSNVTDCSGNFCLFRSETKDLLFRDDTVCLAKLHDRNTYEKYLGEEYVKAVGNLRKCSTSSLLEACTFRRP

- binding result: binds
B1: immX3AVD (peptide)
peptide: KKGFYKKKQCRPSKGRKRGFCWAVD
modifications: biotinylated (position not given); labelled with streptavidin-Alexa 488 conjugate (SA488) in the nuclear receptor assay
